How the values were obtained:
[1] = target: stabilized soluble SARS-CoV-2 S ectodomain trimer in the pre-fusion conformation (SARS-CoV-2; bacteriophage T4) (UniProt P0DTC2)
[2] = target: SARS-CoV-2 S protein containing D614 with the C-terminal 19 residues of the cytoplasmic tail deleted, on MLV pseudovirus (SARS-CoV-2) (UniProt P0DTC2); assay: cell-based or functional assay

Sequence of ACE2615-LL-foldon (Q9BYF1 18-615, tags left off, one chain of several): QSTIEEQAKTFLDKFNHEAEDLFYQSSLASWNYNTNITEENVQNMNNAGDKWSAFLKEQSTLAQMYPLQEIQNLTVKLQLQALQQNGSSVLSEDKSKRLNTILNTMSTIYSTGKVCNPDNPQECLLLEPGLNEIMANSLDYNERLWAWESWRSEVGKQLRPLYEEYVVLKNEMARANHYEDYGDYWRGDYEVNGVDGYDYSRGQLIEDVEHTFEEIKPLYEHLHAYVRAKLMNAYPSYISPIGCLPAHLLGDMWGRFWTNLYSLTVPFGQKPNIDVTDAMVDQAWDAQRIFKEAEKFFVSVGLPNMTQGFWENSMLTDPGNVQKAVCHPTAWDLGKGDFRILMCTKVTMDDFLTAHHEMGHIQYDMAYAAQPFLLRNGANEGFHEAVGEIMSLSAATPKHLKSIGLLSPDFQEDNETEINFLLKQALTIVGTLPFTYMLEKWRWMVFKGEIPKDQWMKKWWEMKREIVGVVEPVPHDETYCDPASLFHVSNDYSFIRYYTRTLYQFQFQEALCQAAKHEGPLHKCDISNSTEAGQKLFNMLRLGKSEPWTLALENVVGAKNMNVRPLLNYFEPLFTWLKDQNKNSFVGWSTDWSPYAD

## ACE2615-LL-foldon (from UniProt Q9BYF1 18-615; P10104 458-484) (receptor)
[1]
  Kd: 0.624 nM
  ka2: 3.3
  kdis2: 0.365
  koff: 8.26e-05 s⁻¹
  kon: 133000 M⁻¹ s⁻¹
[2]
  IC50, inhibition of MLV-based pseudovirus infection of ACE2-expressing cells: 0.6 µg/mL

— patent US20220002701A1
